# Test results reported in paper PMC6083498, “F-CphI represents a new homing endonuclease family using the Endo VII catalytic motif”.
# B1: SBM4-60Top duplex (dsDNA)
# DNA 1: TGGTCTGGGTATGGAAGTGATGCACGAGCGCAACGCTCACAACTTCCCTCTCGACCTTGC
# DNA 2: GCAAGGTCGAGAGGGAAGTTGTGAGCGTTGCGCTCGTGCATCACTTCCATACCCAGACCA
# What was measured:
# F-CphI C84S = target: T1, F-CphI C84S (cyanophage S-PM2, UniProt Q7Y4H4 1-142, C84S); test: EMSA; no Mg2+ added; EMSA: 10 mM Tris-HCl pH 8.0, 2% glycerol, 2 ug/ml poly-dIdC, 2 ug/ml BSA, 0.2 mM DTT, on ice 15 min, 2 nM labeled DNA; 8% native PAGE in 1X TBE; conditions: protein: recombinant; tags: C-terminal Myc-His; label: 5'-32P on top strand; blunt
# T1 sequence: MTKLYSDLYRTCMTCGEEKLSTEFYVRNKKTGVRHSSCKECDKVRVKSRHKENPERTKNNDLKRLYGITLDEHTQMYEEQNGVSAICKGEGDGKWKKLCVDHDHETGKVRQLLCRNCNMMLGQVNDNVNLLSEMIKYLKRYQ
# F-CphI N118D = target: T2, F-CphI N118D (cyanophage S-PM2, UniProt Q7Y4H4 1-142, N118D); test: as above; conditions: protein: recombinant; tags: C-terminal Myc-His; label: 5'-32P on top strand; blunt
# T2 sequence: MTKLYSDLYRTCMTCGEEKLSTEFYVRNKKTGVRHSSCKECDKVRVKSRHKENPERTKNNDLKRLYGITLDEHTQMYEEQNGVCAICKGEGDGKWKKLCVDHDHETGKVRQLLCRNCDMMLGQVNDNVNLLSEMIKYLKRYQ
binder,measurement,setting,value
B1,binding result,F-CphI C84S,no binding
same,binding result,F-CphI N118D,no binding
